Assay [1] has as its target T1, human PTK7, full length, expressed on transduced cells (human, UniProt Q13308 31-1070).
T1 sequence: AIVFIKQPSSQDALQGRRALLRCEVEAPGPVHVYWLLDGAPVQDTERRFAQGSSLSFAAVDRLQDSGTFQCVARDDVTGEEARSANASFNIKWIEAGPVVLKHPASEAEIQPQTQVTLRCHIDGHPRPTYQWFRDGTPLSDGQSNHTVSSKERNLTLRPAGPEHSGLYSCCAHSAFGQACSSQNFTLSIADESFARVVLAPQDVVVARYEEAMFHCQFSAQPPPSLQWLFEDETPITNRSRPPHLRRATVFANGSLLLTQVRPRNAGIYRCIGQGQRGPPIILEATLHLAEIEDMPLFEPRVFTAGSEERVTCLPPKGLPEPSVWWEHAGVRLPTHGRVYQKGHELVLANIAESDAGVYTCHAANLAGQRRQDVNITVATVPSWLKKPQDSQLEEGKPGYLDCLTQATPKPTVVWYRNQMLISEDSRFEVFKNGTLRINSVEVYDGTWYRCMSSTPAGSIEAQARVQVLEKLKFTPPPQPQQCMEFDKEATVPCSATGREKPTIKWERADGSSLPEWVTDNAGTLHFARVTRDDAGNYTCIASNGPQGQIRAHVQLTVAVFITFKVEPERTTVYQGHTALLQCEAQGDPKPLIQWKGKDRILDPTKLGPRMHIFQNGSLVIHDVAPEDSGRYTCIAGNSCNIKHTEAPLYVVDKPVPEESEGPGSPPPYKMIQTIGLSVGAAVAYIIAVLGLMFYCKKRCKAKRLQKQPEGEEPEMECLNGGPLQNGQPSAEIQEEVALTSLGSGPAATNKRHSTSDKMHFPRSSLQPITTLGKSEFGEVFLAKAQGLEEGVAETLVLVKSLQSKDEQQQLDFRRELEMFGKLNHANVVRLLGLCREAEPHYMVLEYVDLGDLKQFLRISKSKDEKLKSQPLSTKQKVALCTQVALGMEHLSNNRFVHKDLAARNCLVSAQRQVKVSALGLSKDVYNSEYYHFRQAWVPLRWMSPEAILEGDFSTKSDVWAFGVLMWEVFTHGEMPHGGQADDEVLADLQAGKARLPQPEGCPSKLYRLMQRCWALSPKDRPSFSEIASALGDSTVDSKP
Description: cell-based or functional assay.

Assay [2] addresses T2, murine PTK7-His (murine, UniProt Q8BKG3 23-696, limits assumed).
T2 construct: also called mouse PTK7-His; mouse PTK7
T2 sequence (looked up): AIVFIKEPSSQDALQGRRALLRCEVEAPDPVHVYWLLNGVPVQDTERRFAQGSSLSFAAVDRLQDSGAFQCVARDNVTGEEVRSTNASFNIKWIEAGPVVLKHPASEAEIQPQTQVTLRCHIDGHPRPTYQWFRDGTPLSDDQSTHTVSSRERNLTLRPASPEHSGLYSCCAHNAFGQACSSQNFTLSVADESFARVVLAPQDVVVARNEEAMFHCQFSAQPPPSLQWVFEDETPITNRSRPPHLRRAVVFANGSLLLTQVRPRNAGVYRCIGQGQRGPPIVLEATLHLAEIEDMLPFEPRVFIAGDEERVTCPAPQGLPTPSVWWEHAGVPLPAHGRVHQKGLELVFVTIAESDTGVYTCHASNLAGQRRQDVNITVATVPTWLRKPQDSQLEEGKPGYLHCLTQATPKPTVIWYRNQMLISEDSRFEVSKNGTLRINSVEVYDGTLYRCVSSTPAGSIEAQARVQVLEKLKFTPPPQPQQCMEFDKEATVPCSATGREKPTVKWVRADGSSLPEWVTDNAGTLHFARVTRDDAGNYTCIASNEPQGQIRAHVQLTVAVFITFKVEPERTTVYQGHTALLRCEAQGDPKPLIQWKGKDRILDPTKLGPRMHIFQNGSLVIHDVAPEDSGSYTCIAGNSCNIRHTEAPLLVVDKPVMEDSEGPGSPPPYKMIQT
Description: ForteBio bio-layer interferometry, one antigen concentration (400 nM).

In assay [3] the target is T3, PTK7 ECD Ig domains 1-2 Fc fusion (human).
T3 construct: Tested as supernatant of transfected 293 cells
T3 chain: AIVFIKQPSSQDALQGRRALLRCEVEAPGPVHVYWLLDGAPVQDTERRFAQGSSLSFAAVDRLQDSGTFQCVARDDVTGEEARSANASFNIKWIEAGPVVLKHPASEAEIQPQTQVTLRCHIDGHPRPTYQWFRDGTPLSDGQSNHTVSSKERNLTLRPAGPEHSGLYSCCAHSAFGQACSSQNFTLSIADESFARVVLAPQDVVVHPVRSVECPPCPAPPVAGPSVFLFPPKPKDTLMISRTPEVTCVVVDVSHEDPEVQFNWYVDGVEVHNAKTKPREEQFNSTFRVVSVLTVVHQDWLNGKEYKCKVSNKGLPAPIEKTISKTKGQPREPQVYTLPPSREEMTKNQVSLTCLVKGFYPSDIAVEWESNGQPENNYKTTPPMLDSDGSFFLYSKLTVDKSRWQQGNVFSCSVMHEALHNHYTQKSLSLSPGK
Description: ELISA, Ig-domain Fc fusion captured by anti-human IgG Fc.
Description: Using these constructs several modulators were tested for their ability to recognize PTK7 proteins with deletions of defined Ig domains. Through an ELISA assay comprising the use of domain deleted constructs and run under standard conditions. In this regard PTK7 Ig domain Fc fusions were captured on ELISA plate coated with goat anti-human IgG Fc-specific (Jackson Immunoresearch) antibody. The ability of each murine anti-PTK7 antibody to bind the various deletion Fc fusion proteins was then detected with HRP-labeled goat anti-mouse Fc-specific antibody.

Assay [4] has as its target T2, murine PTK7-His. Description: ForteBio bio-layer interferometry, mouse PTK7-His against human PTK7-His. A general note: BLI is a label-free optical method that tracks binding on a fibre tip over time.

B1: SC6.10.2 (antibody, V domains shown)
VH: QVQLQQSGAELVRPGVSVKISCKGSGYRFTDYPIHWVKQSHAKSLEWIGIISTYYGDVTNNPKFRGKATMTVDKSSTTAYMELARLTSEDSAIYYCARNDLFAYWGQGTLVTVSA
VL: DIVMTQSQKFMSTSVGDRVNVTCKASQNVGTNVVWYQQKTGQSPKALIHSASYRYSGVPDRFTGSGSGTDFTLTLSNVQSEDLAEYFCQHYNSFPYTFGGGTKLEIKR
notes: Murine monoclonal antibody from a hybridoma; also called H10.2; H10
Take B1: the “EC50, saporin (Fab-ZAP) cell killing, 293.PTK7 Cells” value in assay [1] turned out to be 1.1 pM. Further, the binding result in assay [2] is listed as “no binding (tested: 400 nM)”.

B2: SC6.2.35 (antibody, V domains shown)
VH: QVQMQQSGAELMKPGASVKLSCKATGYTFTGYWIEWVKQRPGHGLEWIGEILPGSGRSNSNEKFKGKATFTADTSSNTAYMQLSSLTTEDSAIYYCARGKLSWGQGTLVTVSA
VL: DIVLTQSPASLAVSLGQRATISCRASESVDSFGNSFMHWYQQKPGQPPKLLIYAASNLGSGVPARFSGSGSGTDFSLNIHPVEEDDSAMYFCQQSKEVPRTFGGGSRLEIKR
notes: Murine monoclonal antibody from a hybridoma; also called H2.35; SC6.H2
For the molecule B2, in assay [1], the “EC50, saporin (Fab-ZAP) cell killing, 293.PTK7 Cells” value stood at 0.65 pM. Moreover, the binding result in assay [3] is on record as “binds”. For the same molecule, the “binding to mouse PTK7 relative to human” value in assay [4] was ~10%.

For the origin of these results see patent US20180162952A1 (AbbVie / Abbott, published 2018).
